# What was measured:
# [1] = system: T1, histone H1 peptide substrate PKTPKKAKKL
# T1 sequence: PKTPKKAKKL
# Aβ 25-35 = system: T2, Aβ 25-35
# T2 sequence: GSNKGAIIGLM
substance,measurement,setting,value
recombinant p34-cdc2/cyclin B1 (Promega),incorporation of 32P from γ32P-ATP,Aβ 1-40,"Aβ 1-42, Aβ 1-40 and Aβ 25-35 incorporated 32P from γ32P-ATP"
same,Michaelis constant (KM) for the phosphorylation,[1],a KM of 2.7 µM for the H1 peptide substrate
same,incorporation of 32P from γ32P-ATP,Aβ 1-42,"Aβ 1-42, Aβ 1-40 and Aβ 25-35 incorporated 32P from γ32P-ATP"
same,incorporation of 32P from γ32P-ATP,Aβ 25-35,"Aβ 1-42, Aβ 1-40 and Aβ 25-35 incorporated 32P from γ32P-ATP"

# — patent US20040072753
